Assay results from US20220356230A1.

Legend:
Assay in all cases: Luminex bead assay, antibody supernatant on modified RBD.mmH microspheres
[1] = molecular target: MOD10 - SARS-CoV-2 Spike Protein (RBD)(R319-F541).mmH (SARS-CoV-2)
[2] = molecular target: MOD11 - SARS-CoV-2 Spike Protein (RBD)(R319-F541).mmH (SARS-CoV-2)
[3] = molecular target: MOD12 - SARS-CoV-2 Spike Protein (RBD)(R319-F541).mmH (SARS-CoV-2)
[4] = molecular target: MOD13 - SARS-CoV-2 Spike Protein (RBD)(R319-F541).mmH (SARS-CoV-2)
[5] = molecular target: MOD14 - SARS-CoV-2 Spike Protein (RBD)(R319-F541).mmH (SARS-CoV-2)
[6] = molecular target: MOD15 - SARS-CoV-2 Spike Protein (RBD)(R319-F541).mmH (SARS-CoV-2)
[7] = molecular target: MOD8 - SARS-CoV-2 Spike Protein (RBD)(R319-F541).mmH (SARS-CoV-2)
[8] = molecular target: MOD9 - SARS-CoV-2 Spike Protein (RBD)(R319-F541).mmH (SARS-CoV-2)

Substance: mAb10936 (antibody)
- Binding signal (MFI) [1]: 28800 MFI
- Binding signal (MFI) [2]: 30800 MFI
- Binding signal (MFI) [3]: 31700 MFI
- Binding signal (MFI) [4]: 29200 MFI
- Binding signal (MFI) [5]: 28500 MFI
- Binding signal (MFI) [6]: 21700 MFI
- Binding signal (MFI) [7]: 2920 MFI
- Binding signal (MFI) [8]: 29100 MFI
